Measurements from patent US20110039758A1 (published 2011).
Ends that are not written are not given here. * marks the point of attachment. Biotin = O=C1N[C@H]2[C@H](CS[C@H]2CCCCC(=O)*)N1

Columns and labels:
[1] = biological target: T1, GST-PSD95 PDZ domain 1 (human); experiment: G assay with MBP-nNOS, anti-MBP-HRP detection, FIG. 11
T1 construct: also called PSD95 d1; PSD-95 d1
Protocol: This protein was used in the G assay in place of a labeled peptide to assess the interaction between PSD95 domains 1 and 2 and nNOS, and detection was performed using an HRP-conjugated antibody against MBP. […] MBP/PSD95 indicates a negative control containing MBP without the nNOS sequences.

[2] = biological target: T2, GST-PSD95 PDZ domain 2 (human); experiment: G assay competition against NMDAR2A or R2B peptide, FIG. 10
T2 construct: also called PSD95 d2; PSD-95 d2

[3] = biological target: T3, GST-PSD95 PDZ domain 3 (human); experiment: G assay
T3 construct: also called PSD95 d3; PSD95 domain 3

[4] = biological target: T2, GST-PSD95 PDZ domain 2; experiment: G assay
[5] = biological target: T1, GST-PSD95 PDZ domain 1; experiment: G assay

T3 sequence (chain, as listed by the source): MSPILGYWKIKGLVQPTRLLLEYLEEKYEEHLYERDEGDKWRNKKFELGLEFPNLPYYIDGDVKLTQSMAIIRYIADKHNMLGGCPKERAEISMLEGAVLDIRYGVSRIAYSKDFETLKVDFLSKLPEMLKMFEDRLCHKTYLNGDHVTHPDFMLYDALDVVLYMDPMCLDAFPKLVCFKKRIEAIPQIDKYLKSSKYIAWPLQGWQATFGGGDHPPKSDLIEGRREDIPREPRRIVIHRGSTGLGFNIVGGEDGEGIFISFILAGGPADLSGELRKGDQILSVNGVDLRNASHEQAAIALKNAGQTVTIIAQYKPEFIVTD
T1 sequence (chain, as listed by the source): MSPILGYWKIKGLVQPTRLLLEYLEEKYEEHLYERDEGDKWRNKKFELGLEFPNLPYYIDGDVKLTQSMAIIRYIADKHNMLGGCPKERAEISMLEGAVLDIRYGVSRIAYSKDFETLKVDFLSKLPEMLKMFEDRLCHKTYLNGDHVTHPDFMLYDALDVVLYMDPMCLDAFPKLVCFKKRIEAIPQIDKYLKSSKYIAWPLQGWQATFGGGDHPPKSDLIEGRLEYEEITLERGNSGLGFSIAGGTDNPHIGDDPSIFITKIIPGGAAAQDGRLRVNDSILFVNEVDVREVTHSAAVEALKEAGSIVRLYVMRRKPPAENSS

B1: Maltose Binding Protein (MBP) fused to amino acids 1-120 of nNOS (other, UniProt P29475 1-120, looked up, not shown: large carriers)
chain: MEDHMFGVQQIQPNVISVRLFKRKVGGLGFLVKERVSKPPVIISDLIRGGAAEQSGLIQAGDIILAVNGRPLVDLSYDSALEVLRGIASETHVVLILRGPEGFTTHLETTFTGDGTPKTI
notes: range 1-120; also called MBP-nNOS; internal PL of nNOS
- binding result [1]: no binding

Binder: YGRKKRRQRRREKHFRETEV (also: N-terminal biotin when used as labelled ligand) [TatTAX: TAT transporter sequence coupled to the C-terminal 9 amino acids of Tax]
- IC50 [2]: 100 to 1000 nM
- Average OD [3]: 2.93 OD
- Average OD [4]: 2.79 OD
- Average OD [5]: 2.81 OD

Binder: Biotin-ESSGTQSPKRHSGSYLVTSV [ESSGTQSPKRHSGSYLVTSV peptide]
- Average OD [3]: 0.7 OD
